Reference: PMC7013354, “Selection and Characterization of CSFV-Specific Single-Domain Antibodies and Their Application along with Immunomagnetic Nanobeads and Quantum Dots” (BioMed Research International, 2020)

B1: recombinant sdAbE2-1 (VHH)
VHH: QVQLLESGGGLVQPGGSLRLSCAASGYSFIDKTMAWVRQAPGKGLEWVSAIRMHNGSTYYADSVKGRFTISRDNSKNTLYLQMNSLRAEDTAVYYCARLSRRIQAKDKAKLKYWGQGTLVTVSS
notes: also called sdAdE2-1; sdAbE2s
B2: QD-sdAbE2-1 probe (VHH)
VHH: QVQLLESGGGLVQPGGSLRLSCAASGYSFIDKTMAWVRQAPGKGLEWVSAIRMHNGSTYYADSVKGRFTISRDNSKNTLYLQMNSLRAEDTAVYYCARLSRRIQAKDKAKLKYWGQGTLVTVSS
notes: also called QD605-labeled sdAbE2-1; QDs-sdAbE2-1
B3: AF488-sdAbE2-2 probe (VHH)
VHH: DVQLVESGGGLVQAGGSLRLSCTASGFTFDDYAMAWFRQPPGKEREGVSCISSSGGSTWYADSVKGRFTVSRDNAKNTLYLQMNSLKPEDTAMYYCAADWGRLCVVRGPRNEYKYSGQGTQVTVSS
notes: also called AF488-labeled sdAbE2-2
B4: recombinant sdAbE2-2 (VHH)
VHH: DVQLVESGGGLVQAGGSLRLSCTASGFTFDDYAMAWFRQPPGKEREGVSCISSSGGSTWYADSVKGRFTVSRDNAKNTLYLQMNSLKPEDTAMYYCAADWGRLCVVRGPRNEYKYSGQGTQVTVSS
notes: also called sdAdE2-2; sdAbE2s

Assays:
Conditions in all cases: one partner purified
[1] = target: T1, E2 of CSFV in infected ST cells and on CSFV virions (Classical swine fever virus, C-strain, UniProt Q96891, strain); test: pull-down
T1 construct: also called E2 of CSFV in ST cells

[2] = target: T1, E2 of CSFV in infected ST cells and on …; test: immunostaining of cells or tissue
[3] = target: T1, E2 of CSFV in infected ST cells and on …; test: far-Western, overlay or dot blot

Binder	binding result [2]	other results
B1	–	binding result [1]: binds
B2	binds	–
B3	binds	–
B4	–	binding result [3]: binds
